These are literature values, as cited in article PMC10716173.

As usually defined, the Kd is a measure of binding affinity in units of concentration.

In this data set the target is stapled BID BH3 peptide BH3 (Homo sapiens) (UniProt P55957).
Sequence of stapled BID BH3 peptide BH3 (Homo sapiens) (P55957 80-101): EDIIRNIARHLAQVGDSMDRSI

Sequence of BAK (Q16611 2-211): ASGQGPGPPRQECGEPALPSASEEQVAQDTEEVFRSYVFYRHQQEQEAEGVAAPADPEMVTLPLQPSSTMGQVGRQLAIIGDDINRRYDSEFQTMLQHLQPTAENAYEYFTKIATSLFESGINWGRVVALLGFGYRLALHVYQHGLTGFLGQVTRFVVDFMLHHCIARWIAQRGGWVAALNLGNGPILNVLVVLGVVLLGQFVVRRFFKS

As for BAK (from UniProt Q16611), the Kd was 1 µM.
